Biological target: carbonic anhydrase 9 (CA9) (UniProt Q16790 38-459)
Assay: cell-based or functional assay

EC50 (pM), cell line 293T-CA9: 13.2 pM
EC50 (pM), cell line 786-O: 82.5 pM
EC50 (pM), cell line A-498: 21.4 pM
EC50 (pM), cell line ACHN-CA9: 38.7 pM
EC50 (pM), cell line SKRC-52: 1.5 pM
B1: BTE (canonical CA9 x CD3 bispecific T cell engager; G37_DBiTE, Non-HLV) (bispecific antibody)
chain: QSVLTQPPSVSGAPGQRVTISCTGSSSNIGAGYDVHWYQHLPGTAPKLLIYGNSNRPSGVPDRFSGSKSGTSASLAITGLQAEDETDYFCQSYDSSLSAWVFGGGTKVTVLGGGGSGGGGSGGGGSQVQLVQSGGGVVQPGGSLRLSCAASGFPFSSYAMSWVRQAPGKGLEWVSAISANGGTTYYADSVKGRFTISRDNSKNTLYLQMNSLRAEDTAVYYCANNGNYRGAFDIWGQGTMVTVSSGGGGSEVQLVESGGGLVQPGGSLRLSCAASGYSFTGYTMNWVRQAPGKGLEWVALINPYKGVSTYNQKFKDRFTISVDKSKNTAYLQMNSLRAEDTAVYYCARSGYYGDSDWYFDVWGQGTLVTVSSGGGGSGGGGSGGGGSDIQMTQSPSSLSASVGDRVTITCRASQDIRNYLNWYQQKPGKAPKLLIYYTSRLESGVPSRFSGSGSGTDYTLTISSLQPEDFATYYCQQGNTLPWTFGQGTKVEIKSSHHHHHH

Reference: patent US20260258153A1 (WISTAR INSTITUTE OF ANATOMY AND BIOLOGY, published 2026)
